# According to the DeepSol protein solubility set:
# Experiment: soluble on expression in E. coli; label from the status in PepcDB or PDB records
row,Sequence,soluble on expression in E. coli
1,MAKARAIVITGNGTNCEMEAAHACRLGGFDETVIAHISDILTGEIRLDDFHFLNLTGGFLDGDDLGSAKAQANRFRYARVDDLEEHLIDQIIRFIDAGKLILGVCNGFQLMTKMGLLPAVDGAYLAQTATLTFNACGRFQDRWVYLKVDQASPSIYTKGVETGLYLPIRHGEGKFVVDSPATLAAIEAKHLAVFTYSDETYSAPTMEFPLNPNGSVNAIAAVCNESGRLMGMMPHPEAFLHRTNHPRWTREDLPEEGDGLVLFRNAADYAKANLLLEHHHHHH,not soluble
2,MALLPAVRRYGRLTRATGLVLEATGLQLPLGATCIIERQDGPETKEVESEVVGFNGQRLFLMPLEEVEGILPGARVYARNGHGDGLQSGKQLPLGPALLGRVLDGGGKPLDGLPAPDTLETGALITPPFNPLQRTPIEHVLDTGVRAINALLTVGRGQRMGLFAGSGVGKSVLLGMMARYTRADVIVVGLIGERGREVKDFIENILGPDGRARSVVIAAPADVSPLLRMQGAAYATRIAEDFRDRGQHVLLIMDSLTRYAMAQREIALAIGEPPATKGYPPSVFAKLPALVERAGNGIHGGGSITAFYTVLTEGDDQQDPIADSARAILDGHIVLSRRLAEAGHYPAIDIEASISRAMTALITEQHYARVRLFKQLLSSFQRNRDLVSVGAYAKGSDPMLDKAITLWPQLEAFLQQGIFERADWEDSLQALDLIFPTV,soluble
3,MQTVIFGRSGCPYSVRAKDLAEKLSNERDDFQYQYVDIRAEGITKEDLQQKAGKPVETVPQIFVDQQHIGGYTDFAAWVKENLDA,soluble
4,MGSDKIHHHHHHMNTLANWKKFLLVAVIICFLVPIMTKAEIAEADTSSELIVSEAKNLLGYQYKYGGETPKEGFDPSGLIQYVFSKADIHLPRSVNDQYKIGTAVKPENLKPGDILFFKKEGSTGTVPTHDALYIGDGQMVHSTQSKGVIITNYKKSSYWSGTYIGARRIAADPATADVPVVQEAEKYIGVPYVFGGSTPSEGFDCSGLVQYVFQQALGIYLPRSAEQQWAVGEKVAPQNIKPGDVVYFSNTYKTGISHAGIYAGAGRFIQASRSEKVTISYLSEDYWKSKMTGIRRFDNLTIPKENPIVSEATLYVGEVPYKQGGVTPETGFDTAGFVQYVYQKAAGISLPRYATSQYNAGTKIEKADLKPGDIVFFQSTSLNPSIYIGNGQVVHVTLSNGVTITNMNTSTYWKDKYAGSIRVQ,not soluble
5,MSLVVFLLLKSQFLYGEDFKLRKGTLIIEEGIIKGFTDEHNEREVIEFKGLVIPSLINAHTHIADNSIKDIGINKTLDELVKPPNGLKHRYLTECSDDLLAEGMKLGLGDMREHGIKYFCDFRENGVRGISLLNKALKCYDYPKAIILGRPIKVDKDEIEEVLKVSNGLGLSGANEFKDDELKLIFKIFKKFKEKDDKKLFAIHAAEHRGAVEYSLNKYGMTEVERLIDLKIKPDFIVHGTHLTDNDLELLKENNIPVVACVRANLSFNVGMPKLNELNDNLLVGIGTDNFMANSPSIFKEMDFIYKLYHIEPKDILRMATINNAKILKLENVGLVDEGFKAVFTFIKPTNAILFSKNIIASVVTRCEKGDVVDFSLMENEEEGHHHHHH,soluble
6,QPKPEVPQCVADWIEECKEEDLTLKGLFSNSDMPAKIFDWIFGSDENCRLMAEAWINGYTVEKEKLYTVDLPNGQPLVRGINTLYFSQNLATENVKLTESEIRKDFEWAWQFAEEVTE,not soluble
7,MRSSAKQEELVKAFKALLKEEKFSSQGEIVAALQEQGFDNINQSKVSRMLTKFGAVRTRNAKMEMVYCLPAELGVPTT,soluble
8,MEKEIKEKNLPLELTLVEASPRVGGKIQTVKKDGYIIERGPDSFLERKKSAPQLVKDLGLEHLLVNNATGQSYVLVNRTLHPMPKGAVMGIPTKIAPFVSTGLFSLSGKARAAMDFILPASKTKDDQSLGEFFRRRVGDEVVENLIEPLLSGIYAGDIDKLSLMSTFPQFYQTEQKHRSLILGMKKTRPQGSGQQLTAKKQGQFQTLSTGLQTLVEEIEKQLKLTKVYKGTKVTKLSHSGSCYSLELDNGVTLDADSVIVTAPHKAAAGMLSELPAISHLKNMHSTSVANVALGFPEGSVQMEHEGTGFVISRNSDFAITACTWTNKKWPHAAPEGKTLLRAYVGKAGDESIVDLSDNDIINIVLEDLKKVMNINGEPEMTCVTRWHESMPQYHVGHKQRIKELREALASAYPGVYMTGASFEGVGIPDCIDQGKAAVSDALTYLFS,not soluble
9,MHHVYVIECSDGTYYTGYTTDVQRRVAEHNAGDGAKYTRGRTPVTLRHTESFDSKSEAMRREYRIKQLSRAQKEALFLEHHHHHH,soluble
10,MGSSHHHHHHSSGLVPRGSHMAPSRRERERERRREQIIRAAEKAFFARGYDRVTMDEIAEEAEVNKALLYYYFKNKESLFFAVNLYGVRILHSMYRRCLELDTDGYGKVRAMVEALYSFSKEHPDYFRIYCYSGTERFELSESEDAREIVDLRTGMWRLMVEAIMEGMNDGSIRSDLDPVELSIYIHTLAINALNLDFTSRMVLEARNISRDRFWEDLEVFLESALRP,soluble
11,MGSDKIHHHHHHMNNSASEQKWKWWPLLPLYPYGRRRTIFRELVPNQIWSFEQLQGIYYVAVPVRLLVIRVKNELMIINPLPPTSELLKEIDLLQKKIGPVKTIVLPTASGLEHKIGLPALARAFPNAKIWLCPGQWSFPFQLPFDWLGIPSNRTNILLADGFPHGDDCEWISLGPIDIGLARFQEISCFHKPTKSLLVTDALVGIEATPPELFNLDPTPLLFHSREKGSEELIDSPIARRKGWLRLVLFASYLKPEKLEIPKIKEILENSFKPKMRNKRSHFGIYPFAWQEGWDLSAKKLVGEKTPLIQIAPVIERLVFPRGKKAFISWLNKIESLKGISFLISAHYSGKVRFTTNEIRALKVKIDNSNWEKTQGDFKFLSWFDQKLLNFGIVPKNPLKKFSD,not soluble
12,MGSDKIHHHHHHMIAIEEIGRITPDNLGLVTVLAGEDLGQYAQMKEKLFQVIGFNKDDLAYSYFDLSEEDYQNAELDLESLPFLSDYKVVIFDQFQDITTDKKTYLDEQAMKRFEAYLQNPVDTTRLVICAPGKLDGKRRLVKLLKRDARVLEANTLKESDLKTYFQKYAHQEGLVFEAGVFDELLIKSNYDFSDTLTNIAFLKSYKTDGHISSNDVREAIPKSLQDNIFDLTQDVLLGRIDLARDLVRDLRLQGEDEIKLIAIMLGQFRMFLQVKILASKGKSESQIVSELSHYIGRKINPYQVKFAVRDSRNLPLAFLKEAIRILIETDYAIKRGTYDKDYLFDLALLKIAHKKP,not soluble
13,MSLQSVKVNIPFWLTGSPNVGFEYTLTRQLTVNGEVLWMPYLFKKHEEVFRALQSSVELRYYVNPRNFYTNDSWDGFYIGPYAMYGNFNIGLLKHNDPLQSYRRKGWGVSGGISTGYKFAFNSRWGLDLNIGLGYAHLQYNKYYLGGEYVNFPLERKKTKRWIGPTKFGINLTYNIFREGHHHHHH,not soluble
14,MSQEIQPQATQLQPFSQACENNKVPILAVLKSAFANTTRVLEIGSGTGQHAVYFATNLPQLFWQTSDQAEYLEGIKARCLLQGHQLGINNLGFPITLDVTAPWPVNGTHIDAVFSANTLHIMSKSMVEAFFNGLGEYLPQLNTLCIYGPFNYQGHYTSDSNRQFDHFLKQRDSESGIRDIEWIIALAQAQGLTLVEDIAMPTNNRLLHFKHLLALEHHHHHH,soluble
15,MSLSRNSDLHMHSTASDGGYSPTELMEKCHQANLKFVALTDHDTVNGIEEAKQTAHRLGFILIPGIELSTKASGQSVHMLGYGIDWKNDTLKRRLDRQQDIRKQRLEQILLKLKAAGVPLEQDAVLRYADGGAIGRPHVAKALMDKGYVRSVQEAFEHYLAEGRPCYVKRQEYISVEQAIAWIHQAGGVAIVAHPGYYDLDDQLIGWVREYGLDGIEVYHRDHSREVVAHYEQLCKRMEAETGRRLLRTGGSDFHHESYGRTAAPLGTTRIPDQLTYELLHDLERKKTRAEGHHHHHH,soluble
16,MSLDLRLEELAILGVKLPHDFSPEVQGPLFSSQGLNNISDIAHLSNNENLSYLMTATIENNKVKLDHFVQFLPMIMKFGNSEQRFQLQPKKDTNAPKPTTNKSRGYAKPKRGFGFVDLDDAPSSQPEPSDAEITRNNFDLEQTYWSKNFVNITRVGSRTILEPAIGASLTTYNSGQCYILRLPRKLLISTNTEWPDFISRKIELDGKPLPIPSDNLTEISSREDIISCSYVNDKIDSNWGAVVSLSKSSSENLKVVGIEKQSMVLRESTPMNEGHHHHHH,soluble
17,MGSDKIHHHHHHFEDLKPVIADSTKVTQAHTYKDINKLDIDVKDVNVEFREGKNYSVRYEGAKSSSPTVKKSGNQLQIKGRLSSHSIRFNGMSMYDDYYRNSDRNKMIITLPKDSKLDELNLKLSDSLLSQVNMTGIEADRVKASIHDTKLDLRDANFGNVELSAGDSDISMTNTVLSNGKLDLNDTDVRLDGGSLMQVAMNITEGDVDYNNLSIQGGNLRNNDGDIKMSNTQIQGGYKIDDTDGDILVSRVTVDGYRVQSNDGDVRLFEQTTSNGNVLEKNSNSDNVLDIISNDGDITVN,not soluble
18,AIARGHGTYMDEDRLTASVAGQVERVNKLICVKPLKTRYNGEVGDVVVGRITEVQQKRWKVETNSRLDSVLLLSAVNLPGGELRRRSTQDELAMRDYLQEGDLISAEVQSIFSDGALSLHTRSLKYGKLGQGVLVYVSPSLVKRQKTHFHNLPCGASLILGNNGYVWLSPTPALQEEQAGGFYTSMEPVSLSDREVVSRLRNCLLALANQKVLLFDTSVLYCYEASLQHQIKDILKPEIMEEIVLETRQRLMEHEG,soluble
19,GSFTSSGCQEANYGALLRELCLTQFQVDMEAVGETLWCDWGRTIRSYRELADCTWHMAEKLGCFWPNAEVDRFFLAVHGRYFRSCPISGRAVR,soluble
20,MGSDKIHHHHHHMSLHYSVLASGSTGNALYIESEQTRLLVDAGLTGKAMLALFDQIHRSPEKIDGLFVTHEHSDHIKGVGIMARKYNIPLYANEKTWAAMEAKIGKIDPALKFLWEVGEVKQFGDIEVESFNVSHDAADPMFFQFAHEGKRLAHITDTGYVSDRMKGVIRGADAYIFEANHDIGMLQMGHYPWSVKRRILGDYGHVSNEDAAIAMSEVLDDRTKRIHMAHLSKDNNMKELARMSVSQTLASRDVDLSKIQLLDTDPVIPTPLLKL,not soluble
21,MEGDTVHWQTHTVFNQPIPLNNSNLYLSDGALCEAVTREGAGWDSDFLASIGQQLGTAESLELGRLANVNPPELLRYDAQGRRLDDVRFHPAWHLLMQALCTNRVHNLAWEEDARSGAFVARAARFMLHAQVEAGSLCPITMTFAATPLLLQMLPAPFQDWTTPLLSDRYDSHLLPGGQKRGLLIGMGMTEKQGGSDVMSNTTRAERLEDGSYRLVGHKWFFSVPQSDAHLVLAQTAGGLSCFFVPRFLPDGQRNAIRLERLKDKLGNRSNASCEVEFQDAIGWLLGQEGEGIRLILKMGGMTRFDCALGSHAMMRRAFSLAIYHAHQRHVFGNPLIQQPLMRHVLSRMALQLEGQTALLFRLARAWDRRADAKEALWARLFTPAAKFVICKRGMPFVAEAMEVLGGIGYCEESELPRLYREMPVNSIWEGSGNIMCLDVLRVLNKQAGVYDLLSEAFVEVKGQDRYFDCAVRRLQQQLRKPAEELGREITHQLFLLGCGAQMLKYASPPMAQAWCQVMLDTRGGVRLSEQIQNDLLLRATGGVCV,not soluble
22,MAGDPMVIIHMIPKKIHYCWFGKGKHSKEMKKCIKSWKKYCPDYEIIEWNESNFDISAHPFVKAAYEAKAWAFVSDYARLKIIYDYGGVYLDTDVELIRNIDFLLQNDAYLGVEAQDWLCNTGLGFGAKKHNSIIAEMLQIYNEIEFDNSKKSTIACPYLNTAVVEKIGYKKQDRIQQLDKITIYPPKYFDPFPSGGSVSILICDETVSIHHYSASWGSWKNKLKRRIARFIGPKLTFKLKKLKIFLITRKLEHHHHHH,soluble
